From patent US20180335433A1 (LA JOLLA INSTITUTE FOR ALLERGY AND IMMUNOLOGY, published 2018)

Key:
[1] = biological target: T1, CD28, endogenous in primary mouse CD4+ T cells (mouse, UniProt P31041 20-218); test: anti-CD28 co-IP, stimulated transduced PKCθ-/- T cells (FIG. 4c)
T1 construct: whole, on cells; Immunoprecipitated with anti-CD28 mAb from lysates of retrovirally transduced mouse T cells; also called murine CD28

[2] = biological target: T2, SH3-inactivated (W97A) Lck (UniProt P06239 2-509, limits assumed); test: anti-Myc IP from stimulated JCam1.6 cells reconstituted with Lck W97A, immunoblot for Lck (FIG. 12)
T2 construct: whole, on cells; also called Lck W97A
T2 sequence (P06239 2-509 W97A limits assumed): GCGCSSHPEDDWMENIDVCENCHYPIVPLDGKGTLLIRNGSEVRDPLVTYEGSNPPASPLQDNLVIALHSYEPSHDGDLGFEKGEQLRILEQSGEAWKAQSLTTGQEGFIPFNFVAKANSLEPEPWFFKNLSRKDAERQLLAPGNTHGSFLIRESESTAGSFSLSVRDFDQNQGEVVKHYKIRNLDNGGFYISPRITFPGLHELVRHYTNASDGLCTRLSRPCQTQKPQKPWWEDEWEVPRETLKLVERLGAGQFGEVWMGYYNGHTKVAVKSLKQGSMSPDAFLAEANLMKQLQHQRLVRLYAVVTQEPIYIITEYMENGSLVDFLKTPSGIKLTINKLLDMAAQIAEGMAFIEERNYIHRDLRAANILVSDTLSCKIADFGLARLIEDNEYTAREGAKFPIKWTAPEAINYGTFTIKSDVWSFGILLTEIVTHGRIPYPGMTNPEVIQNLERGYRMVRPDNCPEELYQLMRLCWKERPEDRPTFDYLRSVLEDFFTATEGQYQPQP
Description: FIG. 12 Interaction between CD28 and the V3 of PKCθ is Lck-dependent. PKCθ-Lck-CD28 association in Lck-deficient (JCam1.6) Jurkat cells cotransfected with Myc-tagged PKCθ−V3 plus WT Lck or its indicated mutants, Transfected cells were stimulated with anti-CD3 and anti-CD28 for 5 min, immunoprecipitated with an anti-Myc Ab, and immunoblotted for Lck and endogenous CD28. Data are from three experiments.

T1 sequence (P31041 20-218): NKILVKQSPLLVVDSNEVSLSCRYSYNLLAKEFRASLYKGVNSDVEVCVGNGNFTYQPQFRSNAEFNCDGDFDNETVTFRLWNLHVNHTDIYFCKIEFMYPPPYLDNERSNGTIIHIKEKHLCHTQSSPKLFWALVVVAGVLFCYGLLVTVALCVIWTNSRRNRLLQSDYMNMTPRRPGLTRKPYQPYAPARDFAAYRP

Row | Binder | binding result [1] | binding result [2]
1 | PKCθ P330/1/4/6A (4P-A; all four Pro residues of the PR motif mutated to alanine) (enzyme) MSPFLRIGLSNFDCGSCQSCQGEAVNPYCAVLVKEYVESENGQMYIQKKPTMYPPWDSTFDAHINKGRVMQIIVKGKNVDLISETTVELYSLAERCRKNNGKTEIWLELKPQGRMLMNARYFLEMSDTKDMNEFETEGFFALHQRRGAIKQAKVHHVKCHEFTATFFPQPTFCSVCHEFVWGLNKQGYQCRQCNAAIHKKCIDKVIAKCTGSAINSRETMFHKERFKIDMPHRFKVYNYKSPTFCEHCGTLLWGLARQGLKCDACGMNVHHRCQTKVANLCGINQKLMAEALAMIESTQQARCLRDTEQIFREGPVEIGLPCSIKNEARAACLATAGKREPQGISWESPLDEVDKMCHLPEPELNKERPSLQIKLKIEDFILHKMLGKGSFGKVFLAEFKKTNQFFAIKALKKDVVLMDDDVECTMVEKRVLSLAWEHPFLTHMFCTFQTKENLFFVMEYLNGGDLMYHIQSCHKFDLSRATFYAAEIILGLQFLHSKGIVYRDLKLDNILLDKDGHIKIADFGMCKENMLGDAKTNTFCGTPDYIAPEILLGQKYNHSVDWWSFGVLLYEMLIGQSPFHGQDEEELFHSIRMDNPFYPRWLEKEAKDLLVKLFVREPEKRLGVRGDIRQHPLFREINWEELERKEIDPPFRPKVKSPFDCSNFDKEFLNEKPRLSFADRALINSMDQNMFRNFSFMNPGMERLIS | no binding | 
2 | Myc-tagged PKCθ V3 domain (aa 282-379 of human PKCθ, N-terminal Myc tag) (other, also called Myc-tagged V3; isolated V3 domain; not shown: N-terminal Myc tag of the pMIG vector) GINQKLMAEALAMIESTQQARCLRDTEQIFREGPVEIGLPCSIKNEARPPCLPTPGKREPQGISWESPLDEVDKMCHLPEPELNKERPSLQIKLKIED |  | no binding
